Data reported in IntAct's records for PubMed 16343974.

B1: Membrane protein (Human SARS coronavirus), P59596 (parent)
chain: MADNGTITVEELKQLLEQWNLVIGFLFLAWIMLLQFAYSNRNRFLYIIKLVFLWLLWPVTLACFVLAAVYRINWVTGGIAIAMACIVGLMWLSYFVASFRLFARTRSMWSFNPETNILLNVPLRGTIVTRPLMESELVIGAVIIRGHLRMAGHSLGRCDIKDLPKEITVATSRTLSYYKLGASQRVGTDSGFAAYNRYRIGNYKLNTDHAGSNDNIALLVQ

Variants of: B1
Details: with ncap_sars N

Variant | effect of a mutation on the interaction
L218A;L219A | with no effect
